Measurements from patent US20050203281A1, “Production of recombinant fragments of muscle acetylcholine receptor and their use for ex vivo immunoadsorption of anti-ch receptor antibodies from myasthenic patients” (priority 2002, published 2005).
Entries after “also recorded” stand apart in the source; their conditions may differ. Like-named read-outs stand apart in the source and are kept apart here.

How the values were obtained:
[1] = test system: anti-AChR antibodies from MG sera; assay: Immunoadsorption of anti-AChR antibodies from MG sera by CNBr-Sepharose-immobilized subunit domains, RIA with human AChR from TE671 cells; type: binding; details: for percentage of anti-AChR antibodies eliminated, best-adsorbed sera: 13 of 64 (20%) MG sera, 2.5 ul serum
Experimental: FIG. 6 illustrates the immunoadsorption of anti-AChR antibodies from MG sera using immobilized alpha1-210 (black bars), gamma1-218 (grey bars) and epsilon1-219 (blank bars). Each subunit has been expressed in the yeast Pichia pastoris and the purified proteins have been covalently immobilized on CNBr-Sepharose beads. 64 MG positive sera were assayed for binding to human AChR after incubation with alpha1-210 immobilized on CNBr-Sepharose (together with BSA) or with just BSA immobilized on the same insoluble matrix. 2.5 ul of each MG patient serum were incubated with 0.2 ug immobilized alpha1-210 mixed with BSA or the same amount of BSA at […] for 2-3h (in a total volume of 0.16 ml) followed by centrifugation. Samples of the supernatants, each containing an amount corresponding to 0.9 ul of the treated MG sera were subsequently used in a typical RIA MG diagnostic test (Lindstrom et al., Meth. Enzymol. 74, 432460, 1981) with human AChR from TE671 cells. The percentage of immunoadsorption was estimated as described in the Example 3. Samples were processed in duplicates. Results shown (black bars) are an average of two experiments. Sera are sorted in decreasing percentage of immunoadsorption to immobilized alpha1-210.
FIG. 7 illustrates the immunoadsorption of anti-AChR antibodies from MG sera against immobilized alpha1-210 (black bars), gamma1-218 (gray bars) and a mix of both immobilized alpha1-210 and gamma1-218 (hatched bars). 9 MG sera were assayed for binding to human AChR after incubation of 20 fmoles anti-AChR MG antibodies with alpha1-210 (1 ug), or gamma1-218 (1 ug) or alpha1-210/gamma1-218 mix (containing 1 ug of each subunit) immobilized on CNBr-Sepharose. Incubation with just BSA immobilized to the same insoluble matrix served as a control to calculate the percent immunoadsorption against each of the subunits and the mix of both. After incubation with the Sepharose-immobilized proteins, sera were screened in a typical RIA experiment using TE671 AChR. The percentage of immunoadsorption was estimated as described in the Example 3. Samples were processed in duplicates. Results shown are an average of two experiments.
Immunoadsorption of MG autoantibodies by immobilized alpha1-210. 0.1 mg alpha1-210 mixed with 1.4 mg BSA was covalently bound to 0.5 gr CNBr-Sepharose according to manufacturer's protocol (Amersham). BSA was simply added to increase the protein/Sepharose ratio because the ratio of recombinant protein to Sepharose beads used would otherwise be too small; BSA is not necessary for larger scale experiments. In parallel, 1.5 mg BSA was bound to the same amount of CNBr-Sepharose under the same conditions as control. 2.5 ul MG patient sera were incubated with 0.2 ug immobilized alpha1-210 mixed with BSA, or the same amount of immobilized BSA alone, at 4° C. for 2-3 h (in a total volume of 0.16 ml) followed by centrifugation for bead precipitation. Samples of the supernatants, each containing an amount corresponding to 0.9 ul of these treated MG sera were subsequently used in a typical RIA MG diagnostic test (Lindstrom et al., Meth. Enzymol. 74, 432460, 1981) with human AChR from TE671 cells. The percentage of immunoadsorption was estimated as the ratio between the reduction in immunoprecipitated radiolabeled human AChR after incubation with alpha1-210 and the immunoprecipitated radiolabeled human AChR without incubation with alpha1-210 (incubation with plain immobilized BSA). 64 MG positive sera were assayed for binding to human AChR after incubation with immobilized alpha1-210 or BSA. […] We also tested immunoadsorption of the same set of MG sera by incubating 0.2 ug immobilized alpha1-210 with a fixed amount of anti-AChR antibodies (20 fmoles in variable volumes of MG sera depending on their titer) rather than a fixed serum volume.
Immunoadsorption of MG autoantibodies by immobilized gamma1-218 or epsilon1-219 domains. […]

[2] = test system: anti-AChR autoantibodies from MG sera; assay: Binding of MG patients' autoantibodies to 125I-alpha-BTX-labeled alpha1-210 and hybrid AChR (RIA); design: species or system human
Experimental: 50 MG-positive sera were assayed for binding to alpha1-210 and to a hybrid AChR molecule (HaTbgd) containing human alpha subunit and Torpedo beta, gamma and delta subunits, labeled with ^125I-alpha-BTX. MG sera binding to ^125I-alpha-BTX-alpha1-210 were plotted versus binding to ^125I-alpha-BTX-HaTbgd in a logarithmic scale. […] Samples were processed in duplicates.
70 human sera were screened: 50 MG and 20 healthy controls (5 ul of human sera/sample).

[3] = test system: 125I-alpha-BTX; type: binding
Experimental: FIG. 2 illustrates the binding of alpha-BTX to alpha1-210 of FIG. 1. (A) Scatchard plot analysis of ^125I-alpha-BTX binding to alpha1-210 fragment. Culture supernatants containing alpha1-210 (40 microliters, 40 ul) were incubated with various concentrations of ^125I-alpha-BTX in 10 ul of PBS-0.2 % bovine serum albumin (BSA), then, after 3 hours incubation at 40° C., the samples were filtered through Whatman DE81 filters, and the bound radioactivity measured on a gamma counter (filter assay). Samples were processed in duplicates. […] (B) The specific binding of the ^125I-alpha-BTX to alpha1-210 fragment was studied in competition experiments involving the simultaneous addition of increasing concentrations of unlabeled toxin. Samples were processed in duplicates. Binding of labeled alpha-BTX in the absence of unlabeled alpha-BTX was taken as the 100% level. (C) Effect of deglycosylation on ^125I-alpha-BTX binding to alpha1-210. In vitro deglycosylation was performed using N-glycosidase F treatment. Aliquots at various reaction time-points were assayed for ^125I-alpha-BTX binding in filter assay experiments. Samples were processed in duplicates (dark columns, N-glycosidase F treatment; light columns, control treatment).
To study the binding of alpha-BTX to alpha1-210 as an indication of correct protein folding, we tested both crude culture supernatants and the purified protein in “filter assay” experiments: Fifty nanograms of purified alpha1-210 or […] of culture supernatant was incubated at […] for 3 h with various concentrations of ^125I-alpha-BTX (specific activity 800,000 cpm/pmole) in a final volume of […] of PBS buffer, pH 7.5, 0.2% BSA. The samples were then diluted with 1 ml of 0.5% Triton X-100 in 20 mM Tris buffer, pH 7.5 (Triton buffer) and immediately filtered through two Whatman DE81 filters prewashed with Triton buffer. The filters were then washed twice with 1 ml of Triton buffer and the bound radioactivity measured on a gamma-counter. Samples without alpha1-210 were used to measure non-specific binding. Specific binding of alpha-BTX was also studied in competition experiments by addition of various amounts of unlabeled alpha-BTX to the sample.

[4] = test system: 125I-alpha-BTX; assay: 125I-alpha-BTX filter assay of alpha domain expressed in HEK293 cells (SFV vector); type: binding; details: expressed in HEK293 cells with recombinant SFV-1 vector
Experimental: […] Approximately 2×10^6 transfected cells were allowed to express the protein of interest. Cells and medium supernatant were collected after two days. Cells were washed in cocktail buffer (1×PBS pH7.4 with PMSF. 1 mM, aprotinin 5units/ml, leupeptin 5 micrograms/ml, iodoacetamide 1 mM). The medium supernatant (12 ml) was concentrated […] to a final volume of 2.5 ml and dialysed against PBS buffer at 4° C. To extract the receptor, the cell pellet was resuspended in 0.5 ml of cocktail-2% Triton-X100 and the mixture was left at 4° C. with mild agitation. The mixture was subsequently centrifuged at 15000 g for 15 min and the supernatant was tested for ^125I-alpha-BTX binding. The filter assay technique (as described in Example 1) was used to test whether the expressed protein was secreted in the medium supernatant or retained within the cell (in either the cytoplasm or the membrane).
Having established that the cloned product is functional, the recombinant SFV plasmid is linearized at SpeI site, purified and used in an in vitro mRNA synthesis using the mMESSAGE mMACHINE kit (Ambion Inc.) Approximately 20 micrograms of mRNA produced is obtained and used to electroporate 0.7 ml of 10^7 cells/ml HEK293 cells. We only use the recombinant SFV-1 vector without the helper plasmid at this stage. Both the cells and the supernatant are collected two days post-electroporation. […]

[5] = test system: alpha1-210; assay: Delta1-224 studied together with alpha1-210 in 125I-alpha-BTX binding experiments; design: species or system human

B1: alpha1-210 (protein)
chain: SEHETRLVAKLFKDYSSVVRPVEDHRQVVEVTVGLQLIQLINVDEVNQIVTTNVRLKQQWVDYNLKWNPDDYGGVKKIHIPSEKIWRPDLVLYNNADGDFAIVKFTKVLLQYTGHITWTPPAIFKSYCEIIVTHFPFDEQNCSMKLGTWTYDGSVVAINPESDQPDLSNFMESGEWVIKESRGWKHSVTY
modifications: glycosylated at residue 141
immunoadsorption with fixed amount of anti-AChR antibodies compared with fixed serum volume ([1]; 0.2 ug immobilized protein, 20 fmoles antibodies in variable serum volumes): identical with the above immunoadsorption results
percentage of anti-AChR antibodies eliminated, best-adsorbed sera ([1]; 0.2 ug immobilized protein): more than 60%
percentage of anti-AChR antibodies eliminated, best-adsorbed sera ([1]; 0.2 ug immobilized protein, listed as immobilized alpha domain): more than 60%
average percentage of anti-AChR antibodies eliminated in all sera tested ([1]; all sera tested): 37%
percentage of immunoadsorption, intermediate sera ([1]; another 24 sera (37%) of 64): 20-60%
immunoadsorption of serum no. 3 ([1]; serum no. 3, 1 ug of each immobilized subunit, 20 fmoles antibody): 54%
amount of antibody eliminated by 1 ug immobilized protein ([1]; titration experiments, 0.25 ml serum of titer 5 nM): ≥ 1250 fmol
volume of MG serum from which 1 ug immobilized protein eliminates the anti-alpha antibodies ([1]; titration experiments, MG serum of titer 5 nM): at least 0.25 ml
proportion of MG sera with high anti-alpha titers that recognized the protein [2]: 66%
125I-alpha-BTX binding after deglycosylation [3]: practically totally lost; also recorded: markedly impaired
binding of 125I-alpha-BTX (in words) [3]: high affinity
Kd ([3]; read-out: average Kd of 125I-alpha-BTX binding, series of experiments): 5.1 ± 2.4 nM
Kd ([3]; read-out: estimated Kd of 125I-alpha-BTX binding, representative experiment): 3.3 nM

B2: alpha 1-210: extracellular domain of human alpha AChR with ApoE leader and six histidines, expressed in HEK293 cells by SFV vector (protein)
chain: B1 chain
modifications: glycosylated at residue 141
ability to bind 125I-alpha-BTX [4]: good ability to bind

B3: delta1-224: N-terminal extracellular domain of human muscle AChR delta subunit expressed in Pichia pastoris, FLAG epitope (protein)
chain: DYKDDDDKLNEEERLIRHLFQEKGYNKELRPVAHKEESVDVALALTLSNLISLKEVEETLTTNVWIEHGWTDNRLKWNAEEFGNISVLRLPPDMVWLPEIVLENNNDGSFQISYSCNVLVYHYGFVYWLPPAIFRSSCPISVTYFPFDWQNCSLKFSSLKYTAKEITLSLKQDAKENRTYPVEWIIIDPEGFTENGEWEIVHRPARVNVDPRAPLDSPSRQDITFYLIIRRK
modifications: glycosylated
immunoadsorption of anti-AChR antibodies (in words) ([1]; immobilized on Sepharose-CNBr): lower but very significant percentages; also recorded: large fractions
interaction between recombinant subunit domains [5]: temporary weak interaction
